The source of these data is patent US20200223885A1.

As usually defined, the Kd is the concentration at which binding is half-saturated. High values mean weaker binding, low ones tighter binding. As usually defined, the koff is the first-order rate constant of dissociation. A high value points to fast dissociation. What is called kon is the rate constant with which the complex forms. Higher therefore signals fast association.

The assay addresses IgG1 (manufactured by Sigma-Aldrich). The assay is described as follows: SPR (Biacore T100), Fc-binding protein amine-coupled to CM5, IgG1 as analyte.

B1: Fc-binding protein FcR9_F (FcR9 with Val192Phe) (receptor)
chain: KIEEAMGMRTEDLPKAEVILEPQWNRVLEKDSVTLKCRGAYSPEDNSTQWFHNESLISSQASSYLIDAATVDDSGEYRCQTSLSTLSDPVQLEVHIGWLLLQAPRWEFKEGDPIHLRCHSWKNTALHKVTYLQNGKGRKYFHHNSDFYIPKATLKDSGSYSCRGLFGSKNVSSETVNITITQGGHHHHHH
Take B1: the dissociation constant (Kd) was 3.28 µM, the koff came to 0.301 s⁻¹ and the kon stood at 90200 M⁻¹ s⁻¹.
